Tested on: renin-angiotensin system (RAS)
Experiment: RSSE-Fingerprinting: blood incubated at 37° C. with added agents, LC-MS/MS quantification of angiotensin peptides
Type: biochemical, human
Conditions: for shift of RSSE-Fingerprint: 5 μg/ml enzyme added prior to incubation
Description: Blood samples were collected and anti-coagulated with standardised heparin tubes (BD). As indicated in FIGS. 3A-3C, plasma separation has been done for the respective samples before the incubation to reach steady state equilibrium.
Following plasma separation by centrifugation at 3000 rcf for 10 minutes at 4° C., […] of plasma was applied onto an activated and equilibrated SEP-PAK™ C18 cartridge. Sample matrix components were removed by washing three times with 1 ml water. Bound analytes were then eluted with 1 ml of methanol. Eluates were evaporated to dryness and reconstituted in 10% acetonitril/90% water supplemented with 0.1% formic acid followed by subjection to LC-MS/MS analysis.
A vacuum manifold has been used for sample processing. • 1. Activation: EtOH abs. • 2. Equilibration: 2×1 ml H2O • 3. Loading: 0.2-1 ml stabilised plasma • 4. Washing: 3×1 ml H2O • 5. Elution: 1 ml MeOH Quantification and Signal Integration
MRM chromatograms were integrated using Analyst 1.5.1 software provided by Applied Biosystems. The threshold for the quantification limit was set at a signal-to-noise ratio of 10. Integration signals not reaching this ratio were set to zero. Analyte signals were related to internal standard signals and concentration was calculated from initially spiked amounts of internal standards.

| Molecule | shift of RSSE-Fingerprint | steady state equilibrium Ang 1-10 concentration, addition of ACE compared to ACE2 (5 μg/ml enzyme, FIG. 2B1) |
| --- | --- | --- |
| NEP: recombinant neutral endopeptidase (neprilysin), purchased from R&D Systems (protein, UniProt P08473 2-750, looked up) Neprilysin: GKSESQMDITDINTPKPKKKQRWTPLEISLSVLVLLLTIIAVTMIALYATYDDGICKSSDCIKSAARLIQNMDATTEPCTDFFKYACGGWLKRNVIPETSSRYGNFDILRDELEVVLKDVLQEPKTEDIVAVQKAKALYRSCINESAIDSRGGEPLLKLLPDIYGWPVATENWEQKYGASWTAEKAIAQLNSKYGKKVLINLFVGTDDKNSVNHVIHIDQPRLGLPSRDYYECTGIYKEACTAYVDFMISVARLIRQEERLPIDENQLALEMNKVMELEKEIANATAKPEDRNDPMLLYNKMTLAQIQNNFSLEINGKPFSWLNFTNEIMSTVNISITNEEDVVVYAPEYLTKLKPILTKYSARDLQNLMSWRFIMDLVSSLSRTYKESRNAFRKALYGTTSETATWRRCANYVNGNMENAVGRLYVEAAFAGESKHVVEDLIAQIREVFIQTLDDLTWMDAETKKRAEEKALAIKERIGYPDDIVSNDNKLNNEYLELNYKEDEYFENIIQNLKFSQSKQLKKLREKVDKDEWISGAAVVNAFYSSGRNQIVFPAGILQPPFFSAQQSNSLNYGGIGMVIGHEITHGFDDNGRNFNKDGDLVDWWTQQSASNFKEQSQCMVYQYGNFSWDLAGGQHLNGINTLGENIADNGGLGQAYRAYQNYIKKNGEEKLLPGLDLNHKQLFFLNFAQVWCGTYRPEYAVNSIKTDVHSPGNFRIIGTLQNSAEFSEAFHCRKNSYMNPEKKCRVW | shifted as expected | – |
| APN: recombinant aminopeptidase N, purchased from R&D Systems (protein, UniProt P15144 2-967, looked up) Aminopeptidase N: AKGFYISKSLGILGILLGVAAVCTIIALSVVYSQEKNKNANSSPVASTTPSASATTNPASATTLDQSKAWNRYRLPNTLKPDSYRVTLRPYLTPNDRGLYVFKGSSTVRFTCKEATDVIIIHSKKLNYTLSQGHRVVLRGVGGSQPPDIDKTELVEPTEYLVVHLKGSLVKDSQYEMDSEFEGELADDLAGFYRSEYMEGNVRKVVATTQMQAADARKSFPCFDEPAMKAEFNITLIHPKDLTALSNMLPKGPSTPLPEDPNWNVTEFHTTPKMSTYLLAFIVSEFDYVEKQASNGVLIRIWARPSAIAAGHGDYALNVTGPILNFFAGHYDTPYPLPKSDQIGLPDFNAGAMENWGLVTYRENSLLFDPLSSSSSNKERVVTVIAHELAHQWFGNLVTIEWWNDLWLNEGFASYVEYLGADYAEPTWNLKDLMVLNDVYRVMAVDALASSHPLSTPASEINTPAQISELFDAISYSKGASVLRMLSSFLSEDVFKQGLASYLHTFAYQNTIYLNLWDHLQEAVNNRSIQLPTTVRDIMNRWTLQMGFPVITVDTSTGTLSQEHFLLDPDSNVTRPSEFNYVWIVPITSIRDGRQQQDYWLIDVRAQNDLFSTSGNEWVLLNLNVTGYYRVNYDEENWRKIQTQLQRDHSAIPVINRAQIINDAFNLASAHKVPVTLALNNTLFLIEERQYMPWEAALSSLSYFKLMFDRSEVYGPMKNYLKKQVTPLFIHFRNNTNNWREIPENLMDQYSEVNAISTACSNGVPECEEMVSGLFKQWMENPNNNPIHPNLRSTVYCNAIAQGGEEEWDFAWEQFRNATLVNEADKLRAALACSKELWILNRYLSYTLNPDLIRKQDATSTIISITNNVIGQGLVWDFVQSNWKKLFNDYGGGSFSFSNLIQAVTRRFSTEYELQQLEQFKKDNEETGFGSGTRALEQALEKTKANIKWVKENKEVVLQWFTENSK | shifted as expected | – |
| ACE: recombinant RAS enzyme Angiotensin Converting Enzyme, purchased from R&D Systems (protein, UniProt P12821 30-1306, looked up) Angiotensin-converting enzyme: LDPGLQPGNFSADEAGAQLFAQSYNSSAEQVLFQSVAASWAHDTNITAENARRQEEAALLSQEFAEAWGQKAKELYEPIWQNFTDPQLRRIIGAVRTLGSANLPLAKRQQYNALLSNMSRIYSTAKVCLPNKTATCWSLDPDLTNILASSRSYAMLLFAWEGWHNAAGIPLKPLYEDFTALSNEAYKQDGFTDTGAYWRSWYNSPTFEDDLEHLYQQLEPLYLNLHAFVRRALHRRYGDRYINLRGPIPAHLLGDMWAQSWENIYDMVVPFPDKPNLDVTSTMLQQGWNATHMFRVAEEFFTSLELSPMPPEFWEGSMLEKPADGREVVCHASAWDFYNRKDFRIKQCTRVTMDQLSTVHHEMGHIQYYLQYKDLPVSLRRGANPGFHEAIGDVLALSVSTPEHLHKIGLLDRVTNDTESDINYLLKMALEKIAFLPFGYLVDQWRWGVFSGRTPPSRYNFDWWYLRTKYQGICPPVTRNETHFDAGAKFHVPNVTPYIRYFVSFVLQFQFHEALCKEAGYEGPLHQCDIYRSTKAGAKLRKVLQAGSSRPWQEVLKDMVGLDALDAQPLLKYFQPVTQWLQEQNQQNGEVLGWPEYQWHPPLPDNYPEGIDLVTDEAEASKFVEEYDRTSQVVWNEYAEANWNYNTNITTETSKILLQKNMQIANHTLKYGTQARKFDVNQLQNTTIKRIIKKVQDLERAALPAQELEEYNKILLDMETTYSVATVCHPNGSCLQLEPDLTNVMATSRKYEDLLWAWEGWRDKAGRAILQFYPKYVELINQAARLNGYVDAGDSWRSMYETPSLEQDLERLFQELQPLYLNLHAYVRRALHRHYGAQHINLEGPIPAHLLGNMWAQTWSNIYDLVVPFPSAPSMDTTEAMLKQGWTPRRMFKEADDFFTSLGLLPVPPEFWNKSMLEKPTDGREVVCHASAWDFYNGKDFRIKQCTTVNLEDLVVAHHEMGHIQYFMQYKDLPVALREGANPGFHEAIGDVLALSVSTPKHLHSLNLLSSEGGSDEHDINFLMKMALDKIAFIPFSYLVDQWRWRVFDGSITKENYNQEWWSLRLKYQGLCPPVPRTQGDFDPGAKFHIPSSVPYIRYFVSFIIQFQFHEALCQAAGHTGPLHKCDIYQSKEAGQRLATAMKLGFSRPWPEAMQLITGQPNMSASAMLSYFKPLLDWLRTENELHGEKLGWPQYNWTPNSARSEGPLPDSGRVSFLGLDLDAQQARVGQWLLLFLGIALLVATLGLSQRLFSIRHRSLHRHSHGPQFGSEVELRHS | shifted as expected | lower |

Source: patent publication US11079398B2, “Method for measurement of peptidic degradation products of a proteolytic cascade in blood samples” (ATTOQUANT DIAGNOSTICS GMBH, priority 2012, dated 2021)
